Data reported in article doi:10.1101/2022.01.10.475532 (bioRxiv, 2022).

Molecular target: recombinant S trimer protein of the WT SARS-CoV-2 strain (SARS-CoV-2 WT (Wuhan-Hu-1), UniProt P0DTC2, stabilised)
Assay: ELISA

B1: MAb S3H3 (IgG) (antibody, V domains shown)
VH: QVQLQQPGAELVRPGASVKLSCKASGYSFTRFWMNWVKQRPGQGLEWIGMIHPSDSETRLNQKFKDKATLTVDKSSTTAYMQLSSPTSEDSAVYYCARKDYDYDAWFAYWGQGTLVTVSA
VL: DIVLTQSPASLAVSLGQRATISCRASKSVSASVYSYMHWYQQKPGQPPKLLIYLASSLESGVPARFSGSGSGTDFTLNIHPVEEEDAATYYCHHSRELPPAFGGGTKLEIK
binding result: binds
